Consider five molecules from article PMC9652281, “Design and directed evolution of noncanonical β-stereoselective metalloglycosidases” (Nature Communications, 2022).

For data set [1], the system named is T1, O=C(Cc1cccs1)N[C@@H]1C(=O)N2C(C(=O)O)=C(/C=C/c3ccc([N+](=O)[O-])cc3[N+](=O)[O-])CS[C@H]12.
T1 construct: mature OmpF; His-tag and thrombin site deleted; beta-barrel trimer
Kind of data set: purified protein. Type of data set: biochemical, Escherichia coli. The settings on record: 50 mM Tris-HCl pH 8, room temperature.

Data set [2] concerns the molecule itself. Nature of the data set: SDS-PAGE of the refolded protein; unfolded OmpF (20 mg/mL) refolded with 1% n-dodecyl-β-D-glucopyranoside and 1% n-dodecyl-β-D-maltopyranoside at 37 °C for 1-2 days; folding and oligomerization determined by 15% SDS-PAGE.
[3] abbreviates: OmpF2, 1.2 equiv. ZnCl2, 10 µM protein.
Where [4] appears, read: OmpF1, 1.2 equiv. ZnCl2, 10 µM protein.
[5] abbreviates: OmpF1Y, 1.2 equiv. ZnCl2, 10 µM protein.

Take “OmpF (outer membrane protein F; OmpF1, OmpF1Y, OmpF2 and evolved variants) (Escherichia coli K-12; L105H/R154H/Y124H)”: in data set [1] (setting [3]), the Km (in general, the substrate concentration at which the rate is half of its maximum) came out at 1700 ± 600 µM and the kcat – broadly, the maximal rate divided by the concentration of active sites – came out at 0.025 ± 0.005 s⁻¹.
Consider “OmpF (outer membrane protein F; OmpF1, OmpF1Y, OmpF2 and evolved variants) (Escherichia coli K-12; R104H/R154H/Y124H)”, for which, in data set [1] (setting [4]), the Km is 1400 ± 600 µM and the kcat was determined as 0.017 ± 0.004 s⁻¹.
As for “OmpF (outer membrane protein F; OmpF1, OmpF1Y, OmpF2 and evolved variants) (Escherichia coli K-12; R104H/R154H)”, in data set [1] (setting [5]), the Km was determined as 2000 ± 1000 µM and the kcat is 0.02 ± 0.01 s⁻¹.

B1: OmpF1 (OmpF R82H/Y102H/R132H) (natural protein, UniProt P02931 23-362, looked up)
chain: AEIYNKDGNKVDLYGKAVGLHYFSKGNGENSYGGNGDMTYARLGFKGETQINSDLTGYGQWEYNFQGNNSEGADAQTGNKTHLAFAGLKYADVGSFDYGRNHGVVYDALGYTDMLPEFGGDTAYSDDFFVGHVGGVATYRNSNFFGLVDGLNFAVQYLGKNERDTARRSNGDGVGGSISYEYEGFGIVGAYGAADRTNLQEAQPLGNGKKAEQWATGLKYDANNIYLAANYGETRNATPITNKFTNTSGFANKTQDVLLVAQYQFDFGLRPSIAYTKSKAKDVEGIGDVDLVNYFEVGATYYFNKNMSTYVDYIINQIDSDNKLGVGSDDTVAVGIVYQF
notes: outer membrane protein F (OmpF), UniProt P02931, expressed without the native 22-residue signal peptide; His-tag and thrombin site were deleted from the plasmid; Crystallised with 1.2 equiv. of Zn ion per protomer; also called R132H/Y102H/R82H; source: E. coli BL21(DE3)
Consider B1, for which the stoichiometry N (commonly a count of units in the complex or per binding partner) in data set [2] was 3.

B2: OmpF2 (OmpF L83H/Y102H/R132H) (natural protein, UniProt P02931 23-362, looked up)
chain: AEIYNKDGNKVDLYGKAVGLHYFSKGNGENSYGGNGDMTYARLGFKGETQINSDLTGYGQWEYNFQGNNSEGADAQTGNKTRHAFAGLKYADVGSFDYGRNHGVVYDALGYTDMLPEFGGDTAYSDDFFVGHVGGVATYRNSNFFGLVDGLNFAVQYLGKNERDTARRSNGDGVGGSISYEYEGFGIVGAYGAADRTNLQEAQPLGNGKKAEQWATGLKYDANNIYLAANYGETRNATPITNKFTNTSGFANKTQDVLLVAQYQFDFGLRPSIAYTKSKAKDVEGIGDVDLVNYFEVGATYYFNKNMSTYVDYIINQIDSDNKLGVGSDDTVAVGIVYQF
notes: outer membrane protein F (OmpF), UniProt P02931, expressed without the native 22-residue signal peptide; His-tag and thrombin site were deleted from the plasmid; Crystallised with 1.2 equiv. of Zn ion per protomer; also called R132H/Y102H/L83H; source: E. coli BL21(DE3)
Take B2: the “stoichiometry N” value in data set [2] was 3.
